{"source": "patent US7446182", "about": "(University of Texas, dated 2008)", "key": {"[1]": {"biological_target": "T1, Bacillus anthracis protective antigen (PA), 83 kDa polypeptide (Bacillus anthracis, UniProt P13423 30-764)", "T1 sequence (P13423 30-764 limits assumed)": "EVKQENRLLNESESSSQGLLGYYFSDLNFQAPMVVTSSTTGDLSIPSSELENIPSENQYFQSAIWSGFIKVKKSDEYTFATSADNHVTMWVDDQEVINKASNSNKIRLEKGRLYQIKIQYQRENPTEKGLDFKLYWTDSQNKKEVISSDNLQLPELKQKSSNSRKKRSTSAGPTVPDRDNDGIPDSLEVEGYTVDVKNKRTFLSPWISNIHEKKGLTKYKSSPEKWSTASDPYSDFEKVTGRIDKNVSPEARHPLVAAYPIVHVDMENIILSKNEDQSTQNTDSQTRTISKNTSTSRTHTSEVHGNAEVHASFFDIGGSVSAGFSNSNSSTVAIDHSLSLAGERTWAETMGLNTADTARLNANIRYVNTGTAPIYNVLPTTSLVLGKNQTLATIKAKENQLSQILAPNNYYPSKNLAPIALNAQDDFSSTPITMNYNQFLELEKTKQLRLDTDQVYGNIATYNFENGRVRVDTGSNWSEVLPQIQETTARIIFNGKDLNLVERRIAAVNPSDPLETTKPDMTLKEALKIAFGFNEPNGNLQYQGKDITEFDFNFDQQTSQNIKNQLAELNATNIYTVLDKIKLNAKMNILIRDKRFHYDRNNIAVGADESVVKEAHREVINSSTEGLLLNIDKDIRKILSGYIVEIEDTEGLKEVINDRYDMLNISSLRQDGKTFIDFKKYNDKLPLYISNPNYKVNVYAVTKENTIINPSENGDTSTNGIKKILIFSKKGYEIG"}, "[2]": {"biological_target": "T1, Bacillus anthracis protective antigen …", "remark": "listed apart in the source"}, "[3]": {"biological_target": "T1, Bacillus anthracis protective antigen …", "remark": "listed apart in the source"}}, "note": "Several values for one entry are separate records, joined by “and”; a condition that tells them apart may be missing. Equal values may be shown once.", "data": [{"binder": "A2E scFv (scFv) scFv: DIQMTQTTSSLSASLGDRVTISCRASQDIRNYLNWYQQKPDGTVKLLIYYTSRLQPGVPSRFSGSGSGTDYSLTISNQEQEDIGTYFCQQGNTLPWTGFFFTKLEIKRGGGGSGGGGSGGGGSGGGGSEVQLQQSGPELVKPGASVKISCKIDSGYAFSSSWMNWVKQRFGQGLEWIGRIYPGDGDTNYNGKFKGKATLTADKSSSTAYMQLSSLTSVDSAVYFCARSGLLRYAMDYWGQGTSVTVSS", "values": [{"measurement": "EC50 (read off the curve)", "setting": "[1]", "result": "~0.02 µg/mL and ~0.05 µg/mL"}, {"measurement": "Kd", "setting": "[2]", "result": 4, "unit": "nM"}, {"measurement": "koff", "setting": "[2]", "result": 0.001, "unit": "s⁻¹"}, {"measurement": "kon", "setting": "[2]", "result": 300000, "unit": "M⁻¹ s⁻¹"}, {"measurement": "fold higher affinity than the 14B7 scFv", "setting": "[3]", "result": 3, "unit": "fold"}, {"measurement": "fold lower equilibrium dissociation constant than 14B7", "setting": "[3]", "result": 3, "unit": "fold"}]}]}
